The DeepSol protein solubility set

assay: soluble on expression in E. coli; label from the status in PepcDB or PDB records

Sequence | soluble on expression in E. coli
MSYITKQDKVIAEAIEREFQRQNSNIELIASENFVSEAVMEAQGSVLTNKYAEGYPGRRYYGGCEFVDVTESIAIDRAKALFGAEHVNVQPHSGSQANMAVYLVALEMGDTVLGMNLSHGGHLTHGAPVNFSGKFYNFVEYGVDKDTERINYDEVRKLALEHKPKLIVAGASAYSRTIDFKKFKEIADEVNAKLMVDMAHIAGLVAAGLHPNPVEYADFVTTTTHKTLRGPRGGMILCKEEYKKDIDKTIFPGIQGGPLEHVIAAKAVAFGEALENNFKTYQQQVVKNAKVLAEALINEGFRIVSGGTDNHLVAVDVKGSIGLTGKEAEETLDSVGITCNKNTIPFDQEKPFVTSGIRLGTPAATTRGFDEKAFEEVAKIISLALKNSKDEEKLQQAKERVAKLTAEYPLYQ | not soluble
MSLKHHHNHHGEAGFKRKVDYLDRPERSEVLSPEDFLQAMPIGKTASILDLGAGTGFLTIPAAKLVDNTVFALDLDAKMLELIESKAKEAGLANVETLEASMDDIPLEANSVDVVLASLVLHEADSLADVLREVSRVVKTGGYFASLEFDTKGTDLKGPPMEIQISAEKLKEELAGFGFEVVKNWQLDEGMYVSIAVKKEGHHHHHH | soluble
GPGSMAVNILKAGFPVSVWNRTASKCDDLVAAGATACATPAELAAASDVVFTNLSDSPDVMEVVFGPNGVAAGICEGAIFVDNSTIKPSVAQEIARRLWKEKKVRALDAPVSGGDIGARNGTLTVMVGGDAAALATVLPVLLAVGKKVTHIGDCGAGQVCKAANQIMVAAQMVALGEILVFCEKCGVSGPTVIEAIKSGSAQCWTLDVKPDRLFAGNRAPGFKAALQSKDMGIVMDTAKEFGVPLPSTAVNTQLFQAMVQNGDGDRDNSAVVSVLERMANVHISEAERE | not soluble
MGHHHHHHSHMVVLRAGKKTFLPALCRAFACRGCQLAPERGAERRDTAPSGVSRFCPPRKSCHDWIGPPDKYSNLRPVHFYIPENESPLEQKLRKLRQETQEWNQQFWANQNLTFSKEKEEFIHSRLKTKGLGLRTESGQKATLNAEEMADFYKEFLSKNFQKHMYYNRDWYKRNFAITFFMGKVALERIWNKLKQKQKKRSN | not soluble
MEEPVLDFQFVHRKIHTGQIAAFDIIARLVPIKNIRGNDFDDRPAAAVFGMHNLQTRPVARHFEGGADFTQLIVLTLGQPESAYVAVRLKIVRGDISRGGVGKLTGKQSHT | not soluble
MSLDLFRSEPVAQPLAARLRPANLDEYVGQEHLLARGKPLREALEQGALHSMIFWGPPGVGKTTLARLLAQVSDAHFETISAVLSGVKEIRQAVEVAKQHAAQYGRRTILFVDEVHRFNKSQQDAFLPYVEDGTLIFIGATTENPSFELNNALLSRARVYVLKSLDEAALRKLVGRALNEDKGLGKRKLRLPEESFQVLLAAADGDGRRLLNLLENAADLAEDGSEISPELLQNLLGDTRRRFDKGGEAFYDQISALHKSVRGSNPDAALYWFARMLDGGCDPLYIARRVVRMASEEVGNADPRALGLCLSAWDVQERLGSPEGELAVAQAIVYLACAPKSNAVYSAFNAAMRDVAESGSREVPLHLRNAPTKLMKSLGYGEEYRYAHDEPDAYAAGEDYFPEDLEPRRYYQPVPRGLELKIRDKLEHLAELDRTSPRQREGHHHHHH | soluble
MNIYKLIGRNLEITDAIRDYVEKKLARLDRYQDGELMAKVVLSLAGSPHVEKKARAEIQVDLPGGLVRVEEEDADLYAAIDRAVDRLETQVKRFRERRYVGKRHSYQGPPPPEVRDLEALRKPEEEEGPRIVRVKRFEMKPMDPEEAAFQMEALGHSFFVFRNAKTDEINVIYRRKDGNYGLIEPA | soluble
MSLKIKVGLIGFGRMGRFYLKEMQKSGRWDVAYICDINPDCRELAKQLSPESKILENEQEMFDDESVQVVGLFALADSRLDRIEKAIKYGKHIISEKPVSDTIDKEWKVVDITEKASCFSTVNLYLRNAWYHQTIKQFIDQGEIGELAILRICHMTPGLAPGEGHEYEGPAFHDCGMHYVDIARWYAGCEYKTWHAQGVNMWSYKDPWWVQCHGTFQNGVVFDITQGFVYGQLSKDQTHNSYVDIIGTKGIARMTHDFKTAVVDLRGVTQTHHIEKPFGGKNIDVLCDLFADSIETGIRNPQLPLIRDSAIASEYAWTFLHDAYTHDLPAIGEGHHHHHH | soluble
MIEIESLSRKWKNFSLDNLSLKVESGEYFVILGPTGAGKTLFLELIAGFHVPDSGRILLDGKDVTDLSPEKHDIAFVYQNYSLFPHMNVKKNLEFGMRMKKIKDPKRVLDTARDLKIEHLLDRNPLTLSGGEQQRVALARALVTNPKILLLDEPLSALDPRTQENAREMLSVLHKKNKLTVLHITHDQTEARIMADRIAVVMDGKLIQVGKPEEIFEKPVEGRVASFVGFENVLKGRVISAEQGLLRIRVGEVVIDAAGDMEVGDQVYAFLRPENIALSKSSTQSSIRNSLQGRVTEAWVLGALVRVKVDCGVPLNVLITRRSAEEMELSPGVQIYARFKASSVHVLR | soluble
MILAQKQKQVIRLNLISTWRKLISSTKIPNWLSQTKIQSKYQTRGIYPGSFFQKTIFRKDGSMSVQRTLQKYMDDWKRISHFDFCLLQEDNSILVTTCDRRLPAESKLEEFRNSTALCLSNATCCLYKITEKNEQLLLIVWGSEDSVSTIGELAVCQIESILESYAEKNDKNAFMQKLLLGDYTDVEAFNRARKLHISSSARRAVFLVETRQSKDEHALATIKNIFSARTHDFITSIDNRGIIVVRELTSTETYDDLENIAHMLVDMLGTEAMTQAWVAYSNTANDLKDLSNAYKEARTALEIGKIFYAERNVFGYRTLGIGRLLYQLPVSICEMFIQEIFGDESLDSIDGETLAIIRTFFENNLNLSETSRQLYVHRNTLVYRFEKIQKRFGLDLRTFEDAMTFKLAMLVSRYLRYQNRT | not soluble
MTVNAKTSPSAGNTWRDLPAAQQPEYPDTEALRAVIADLESYPPLVFAGECDQLRARMAAVAKGEAFLLQGGDCAEAFDAVSADHIRNKLKTLLQMGAVLTYAASVPVVKVGRIAGQYSKPRSKPTETRDGVTLPTYRGDSVNGFDFTEAARIPDPERLKRMYHASASTLNLVRAFTTGGYADLRQVHAWNQDFVKSSPSGQRYEQLAREIDNALNFMRACGTDPAEFQTVEFFSSHEALLLDYESALTRVDSRTGQLYDVSGHMVWIGERTRQLDHAHIEFASRIRNPIGIKLGPSTTAEEALQYIERLDPEREPGRLTFIVRMGADKIRDKLPELVEKVTASGATVAWITDPMHGNTYEAASGHKTRRFDDVLDEVKGFFEVHKSLGTHPGGIHVELTGDDVTECVGGGDEIFVDDLHQRYETACDPRLNRSQSLDLAFLVAEMYRDQ | not soluble
MTKKQKEILFCDYFEEWVEVYKVGAIAKITLAKYYNAAKQLRDLCPKLFISDFDRREYQRIINVYAETHEKQTVKDFHHHVKACIKDLFHDGLIDKDPTYRVVIKGAELEHHHHHH | soluble
MSLSLLVIGSLAFDDIETPFGRSDNTLGGSSTYIALSASYFTDEPIRMVGVVGSDFGKEHFDLLHAKNIDTRGIQVIEDGKTFRWAGRYHYDMNTRDTLDTQLNVFAEFDPHVPQYYRDSKFVCLGNIDPELQLKVLDQIDDPKLVVCDTMNFWIEGKPEELKKVLARVDVFIVNDSEARLLSGDPNLVKTARIIREMGPKTLIIKKGEHGALLFTDNGIFAAPAFPLESIYDPTGAGDTFAGGFIGHLARCGNTSEAEMRKAVLYGSAMASFCVEQFGPYRYNDLDLLEVDDRYQSFLELSRIEEGHHHHHH | soluble
MHHHHHHSSGVDLGTENLYFQSMSTDSVISSESGNTYYRVVLIGEQGVGKSTLANIFAGVHDSMDSDCEVLGEDTYERTLMVDGESATIILLDMWENKGENEWLHDHCMQVGDAYLIVYSITDRASFEKASELRIQLRRARQTEDIPIILVGNKSDLVRCREVSVSEGRACAVVFDCKFIETSAAVQHNVKELFEGIVRQVRLRRDSKEKN | soluble
MRRLLLTLILAATLLGCSQAPQEKLKVGILPIEDSLPIVVADEQGFFKKHGLDVEVIQFSSAVERDAALTAGEVDAVITDPLAVILLRDKGYDVRIASLCLGKTPKEGVFAILAAPNSDIDSVEDLDGKEIAVSLNTIIEYALDVMLSEYGLNYTKISIPKIPIRMQALLNGNVETAVLPEPLASYAVSKGAKLILSDAMLNESITQTVIVFRGDVDDEKVQKFLEAYREAVREINANKEKYREKFIEIARVPENIAGSYPIPDYPEPQQLPKEYYDRYLEWAMQRGLIEKPVPYEEAIR | not soluble
AIADAFEHENRYVHAVYEAIGDHFSATRYRTWPRVQAFLEQLAHEALVLDSGAGNGKYALPVLRQHGYYIAADRCRRLLLRARWQSDALEAQETALLPVECVQADCLFLPFRSGVFDVALSIAVIHHVATARRRVGAVVELGRVLRPTGHALVYVWALRAIPLKLRSRAQSTMDGYLLPWHHKRSTGADALPQKKSDSPSQTYFRFYHLFEEDELRMLVEEANAVSKEGAATTWTLRITGETFDHQNYVVEFQRQNIHALLEDAADNILHPSI | soluble
MITIRNKIGQMLIMGFHGSELHDNSPVAQWLSNDGLGGVLLFDKDLSTGIYGKNLRNQAQIKQLIRQLNRYASMISGGNDNLPLFTAIDYEGGVVDRLSKIEGCPPTMKARELAKLSSDDFDEEVTQMAMTLQSLGFNLNFAPVVDLNLNAHAGIIGNLGRSFSSNPEVTIRLAKQFVDVFSRYGIACAYKHFPGHGSATGDTHEGFVDVTETFQTDELIPYRSLLKDLSNPFMVMTAHVINKHLDSKGLPATLSYDVLTLLLRQSIGYDGVIISDDLQMHAISNHYSLEDALCLTINAGADMVIFANQLGTITPPEVIDVIEKLVIDKQIPYQRIDEAYRRIVRLKQQIICSELINT | not soluble
MAHHHHHHMAQEISNLVKKYNVTWQQTMLRIYDPKETVEFYEKNFGMINIHTYHFNEYNFSLYFLITPPYDEEERKKLPEPNTKESEKYLWNLNTVCLELTYNHNSQEKLSNGNNENDRGFGHIAFNCNDVIEQCDNLFKKNVKFHKLPHETKMKTIGFALDPNNYWIEIVKRSNQVKWKNYKNITNFSQTMIRVKNPEKSLYFYIHILGMKLIHVKHCSDFSLYFLKSNYACAENNKEMIEDQSNKNTNEIYDFNSLKNSYQTDEDYENFKQSWEPVLELTHNHGTEDDDNFSYHNGNTEPRGFGHIGFLVNDLENYCKELETLNVTFKKKVTEGLMKNIAFIYDPDNYVIELIQRDTSFIAK | soluble
NSESKSTPKRLHVSNIPFRFRDPDLRQMFGQFGKILDVEIIFNERGSKGFGFVTFENSADADRAREKLHGTVVEGRKIEVNNATARVMTN | soluble
MSLAYFGIYDGHGGAEASLYAKEHLMNTIVSQKLFWSENDDDVLKSIREGYIQTHYSMWREQEKWPKTSSGLPSTAGTTASIAFIRRGKIYIGHVGDSGIVLGYQNDKESANDGRWVATPLTEDHKPESYAEKMRIMSCGGKVVTKSGVPRVVWNRPRIGHKGPVRRSTPIDEIPFLAVARSLGDLWSYNSAMDEFVVSPVPDVSVIEIDPKKYRCLIFGSDGLWNVMSPKNAVDIVRNAEMENVRIALEGGNEWKNPSKLLVNEALDRWSRSNMKADNTSVVIIMLDPEGHHHHHH | not soluble
MDLHLKNLFGRFQEQFGSGPGLGPGSGVCLMIVEGISSNIIQSIFRASASLYSSEPWKRLRPGHLFGVRVGKDSDWSGKRQPFQCVQFIGGDGGDIAIYMYRSMSYALKMTDGDSWEMARDPNVEVFRVTYELESLMLPSNKRMVKSLSLEVSGTDRFPIMDVARCMTSGELQFRSPTLEELRLVFAVMKALSLVHPLLLQEEKQVRGLPRMIKFSPFIETVDVQWPSEMGKGHDFVAVTVSHPPGQSYEQKREDDELEIVSGMTA | soluble
